# Source: the Immune Epitope Database (IEDB)
# How the values were obtained:
# Assay in all cases: IEDB peptide-MHC binding, purified MHC/competitive/radioactivity; filed as Kd, often an IC50 or EC50 that approximates it; ≥ and ≤ were set here for values at or beyond the usual limits of such assays
# HLA-A*33:01 = target: HLA-A*33:01
# HLA-A*68:01 = target: HLA-A*68:01
# HLA-A*11:01 = target: HLA-A*11:01
# HLA-A*31:01 = target: HLA-A*31:01
# HLA-A*03:01 = target: HLA-A*03:01
# [1] = source organism: SARS coronavirus Tor2
# [2] = source organism: Vaccinia virus WR
# [3] = source organism: Dengue virus 2 Jamaica/1409/1983
# [4] = source organism: Vaccinia virus Copenhagen
# [5] = source organism: Mammarenavirus lassaense
# [6] = source organism: Dengue virus 3 Martinique/1243/1999
# [7] = source organism: Dengue virus 1 Brazil/97-11/1997
# [8] = source organism: Lassa virus Josiah
Sequence,Kd (HLA-A*68:01; [2]) [nM],Kd (HLA-A*11:01; [2]) [nM],Kd (HLA-A*33:01; [2]) [µM],Kd (HLA-A*31:01; [2]) [nM],Kd (HLA-A*03:01; [2]) [µM],also measured
ACQEAVKLK,,,,,,Kd (HLA-A*33:01; source organism: Mammarenavirus juninense): ≥ 77.7 µM
AFSLDVSEK,,,,,,Kd (HLA-A*68:01; [1]): 6740 nM; Kd (HLA-A*11:01; [1]): 3550 nM; Kd (HLA-A*33:01; [1]): ≥ 77.7 µM; Kd (HLA-A*31:01; [1]): 12300 nM; Kd (HLA-A*03:01; [1]): 12.1 µM
AIEKDRLDK,≥ 77700,1120,≥ 77.7,≥ 77900,≥ 78,
ALALGMMVLK,,,,,,Kd (HLA-A*11:01; [3]): 13.7 nM; Kd (HLA-A*03:01; [3]): 0.024 µM
AVEDEEFWK,,,,,,Kd (HLA-A*11:01; source organism: Dengue virus 3 Sri Lanka/1266/2000): 939 nM
AVVCYNSNY,,,,,,Kd (HLA-A*68:01; [1]): 10100 nM; Kd (HLA-A*11:01; [1]): 698 nM; Kd (HLA-A*33:01; [1]): ≥ 77.7 µM; Kd (HLA-A*31:01; [1]): 14200 nM; Kd (HLA-A*03:01; [1]): 5.4 µM
CLAVHECFVK,,,,,,Kd (HLA-A*68:01; [1]): 2270 nM; Kd (HLA-A*11:01; [1]): 3460 nM; Kd (HLA-A*33:01; [1]): ≥ 61.4 µM; Kd (HLA-A*31:01; [1]): 7510 nM; Kd (HLA-A*03:01; [1]): 3.05 µM
CLEWLRAKR,294,≥ 49200,0.438,76.2,13.1,
CLLAISAVY,160,5040,8.53,368,0.987,
CQLMYALEPR,,,,,,Kd (HLA-A*68:01; [4]): 7.65 nM; Kd (HLA-A*11:01; [4]): 39.2 nM; Kd (HLA-A*33:01; [4]): 0.0144 µM; Kd (HLA-A*31:01; [4]): 1050 nM; Kd (HLA-A*03:01; [4]): 0.058 µM
CYLDTNIKM,≥ 25800,≥ 77900,10.9,285,≥ 38.6,
DENKWKSAR,,,,,,Kd (HLA-A*33:01; [3]): 0.306 µM
DIETAIRAGY,1240,5720,6.79,19400,2.48,
DIFVSLVKK,0.538,27.8,0.054,≥ 77900,9.92,
DIVNGKECCY,≥ 70200,≥ 69800,≥ 70,≥ 70000,≥ 70.1,
DIVNNFITK,86.4,1010,≥ 26.8,≥ 29200,≥ 40.8,
DLIKKSDAK,2160,≥ 31300,6.63,≥ 77900,≥ 38,
DLVKSSFVKK,1130,177,0.281,169,0.156,
DMMFINSTCY,1910,10800,0.883,974,0.821,
DSCNANGCEH,,,,,,Kd (HLA-A*68:01; [5]): ≥ 70100 nM; Kd (HLA-A*11:01; [5]): ≥ 69700 nM; Kd (HLA-A*33:01; [5]): ≥ 70 µM; Kd (HLA-A*31:01; [5]): ≥ 70000 nM; Kd (HLA-A*03:01; [5]): ≥ 70 µM

Sequence,Kd (HLA-A*68:01; [2]) [nM],Kd (HLA-A*11:01; [2]) [nM],Kd (HLA-A*33:01; [2]) [µM],Kd (HLA-A*31:01; [2]) [nM],Kd (HLA-A*03:01; [2]) [µM],also measured
DVIGERIKR,,,,,,Kd (HLA-A*68:01; [6]): 24.7 nM; Kd (HLA-A*33:01; [6]): 0.0387 µM
DWLEKHGAER,,,,,,Kd (HLA-A*33:01; [7]): 0.127 µM
EACYIYKSGK,31.8,1010,11.1,6450,1.08,
EARIVDKFGK,101,2570,≥ 20.5,633,7.73,
ETKGVERLK,,,,,,Kd (HLA-A*68:01; [6]): 33.3 nM
ETLNEYKQLY,331,12400,0.541,≥ 41300,15.1,
EVHTWTEQYK,,,,,,Kd (HLA-A*68:01; [7]): 15.2 nM
FIKYVNGWVK,1.13,1.56,0.111,115,0.00176,
FISDNKKEY,7070,≥ 77900,≥ 77.7,≥ 77900,≥ 78,
FLELKRGIY,1880,10700,4.54,2200,≥ 78,
FTSTNDKIK,113,58.8,≥ 77.7,15200,1.19,
GALDTTSYR,,,,,,Kd (HLA-A*68:01; [1]): 68.4 nM; Kd (HLA-A*11:01; [1]): 26.3 nM; Kd (HLA-A*33:01; [1]): 1.4 µM; Kd (HLA-A*31:01; [1]): 86.5 nM; Kd (HLA-A*03:01; [1]): 6.6 µM
GFAAYNRYR,,,,,,Kd (HLA-A*68:01; [1]): ≥ 27000 nM; Kd (HLA-A*11:01; [1]): 6570 nM; Kd (HLA-A*33:01; [1]): 9.67 µM; Kd (HLA-A*31:01; [1]): 821 nM; Kd (HLA-A*03:01; [1]): 5.71 µM
GFEARIVDK,16300,9030,10.3,1600,≥ 41,
GIPYCNYSK,,,,,,Kd (HLA-A*68:01; [8]): 444 nM; Kd (HLA-A*11:01; [8]): 118 nM; Kd (HLA-A*33:01; [8]): ≥ 24.2 µM; Kd (HLA-A*31:01; [8]): ≥ 45000 nM; Kd (HLA-A*03:01; [8]): 3.33 µM
GLLLRKLTSK,,,,,,Kd (HLA-A*03:01; [3]): 0.0396 µM
GVAPGTAVLR,,,,,,Kd (HLA-A*68:01; [1]): 43.2 nM; Kd (HLA-A*11:01; [1]): 165 nM; Kd (HLA-A*33:01; [1]): ≥ 41.9 µM; Kd (HLA-A*31:01; [1]): 2850 nM; Kd (HLA-A*03:01; [1]): 1.32 µM
IISDMYDPR,,,,,,Kd (HLA-A*68:01; [1]): 5.41 nM; Kd (HLA-A*11:01; [1]): 122 nM; Kd (HLA-A*33:01; [1]): 1.34 µM; Kd (HLA-A*31:01; [1]): 325 nM; Kd (HLA-A*03:01; [1]): 12.8 µM
IIVLFQRFLR,3.05,44.3,0.0131,1.33,0.941,
ILAEYIRHR,15,1450,0.0484,13.6,0.0775,
